The values that follow come from patent US20100322974A1, “Targeting the histone code as a bacterial strategy for selectively modulating gene expression” (priority 2005, published 2010).

Data set [1] deals with histone H3 phosphorylation at Ser 10. Put plainly: H3 pS10 signal in HeLa cells infected with the ospF strain after kinase inhibitor pretreatment. The class given is cell-based. To be noted: both inhibitors together, U0126 10 μM and SB203180 2.5 μM, 60 min pretreatment, 30 min infection.
The subject of the next data set is phospho Erk2-GST. Put plainly: In vitro phosphatase assay on phospho Erk2-GST (Western blot). The conditions noted are these: for dephosphorylation of phospho-Erk2 substrate: purified protein, Western blot with anti phospho-Erk. For orientation: In western blotting, separated proteins are transferred to a membrane and probed.
The next data set concerns endogenous Erk. Nature of the data set: Erk phosphorylation in transfected HeLa cells stimulated by PMA. To be noted: transfected expression plasmid, PMA stimulation.
In another data set the test system is p38 MAP kinases. Put plainly: p38 phosphorylation in transfected HeLa cells stimulated by TNF. To be noted: transfected plasmid, TNF stimulation. The class given is cell-based. The protocol:
IF was performed with anti-OspF antibodies.

For the next data set, the target named is OspF (Shigella flexneri, UniProt Q8VSP9, R19K/S66F).
The next data set relates to IL-12. Put plainly: Cytokine production in infected lungs (murine pulmonary infection, ELISA). It counts as in vivo, mice. The conditions noted are these: lungs infected with M90T or ospF strain, 24 hours post-infection. The protocol: The cytokine/chemokine network induced upon infection with Shigella flexneri was analyzed by comparing the profiles obtained upon infection with the invasive strain carrying the virulence plasmid (INV+) and the non-invasive, plasmidless strain (INV−). The murine model of pulmonary infection was used since it was the only valid model to analyze the specific host immune response upon Shigella infection. Following infection with INV−, a Th1 type-network (IL-12, IL-18, CCL9, CCL10, CCL13, and CCL4) was induced. In contrast, a Th2/Tr1 profile (IL-10, CCL1, CCL24 and CCL2) was induced upon infection with INV+. The difference observed was not due to the bacterial dose used for the infection, but was dependent on the presence or absence of the virulence plasmid.
Some of these bacterial effectors are injected within the host cells by a type III secretion apparatus. Use of different bacterial mutants, has highlighted that the bacterial effectors involved in the immunomodulation were effectors secreted by the type III-secretion apparatus. Finally, OspF, a type III-secreted bacterial effector was responsible for the control of IL-12 production (FIG. 10).
A general note: An ELISA detects its analyte on a solid surface through an enzyme-linked reagent.

In another data set the target is T1, ^33P-labeled Erk2 (Homo sapiens, UniProt P28482).
T1 construct: made in house
Nature of the data set: 33P-labeled Erk2 phosphatase assay, steady state kinetics. The class given is biochemical. To be noted: pH 8, 30° C., 100 nM phosphatase, 10 minutes, Michaelis-Menten fit; for Km: read-out: Km of Erk2 dephosphorylation. From the text: In vitro phosphatase assay.

A further data set concerns IL-8 promoter. Nature of the data set: ChIP with anti-OspF antibody at the IL-8 promoter in transfected HeLa cells. It counts as cell-based. Here is the method: (A) DNA isolated from sonicated cross-linked chromatin fragments used as inputs for Chlp assays run on a 2% agarose/TAE gel. (B) Cross-linked chromatin fragments were prepared from Caco 2 cells left untreated (ns) or infected with the WT or the ospF strains at the indicated time. For each time point, aliquots were immunoprecipitated with irrelevant IgG, anti-H3 methyl K9-pS10, or anti-p65 antibodies. Histograms show the results obtained by Real-Time PCR analysis using amplicon from the promoter region of IL-8. Data are expressed as relative enrichment as compared to the result obtained with the corresponding IgG that have been immunoprecipitated at the same time point. […] (C) The data are given as in figure (B) except that the aliquots were immunoprecipitated with irrelevant IgG or anti-RNAPII antibodies. […]
To address whether MAPK-induced H3pS10 in the vicinity of the IL-8 promoter, HeLa cells expressing the plasmids encoding WT ospF, or as control, a C-terminal deletion mutant of the last 30 amino acids ospF (1-221) unable to localize within the nucleus (FIG. 7G) were processed for chromatin immunoprecipitation (ChIP) assay using the anti-OspF antibody and the enrichment of OspF at the IL-8 promoter was analyzed by Real-Time quantitative PCR.
In unstimulated cells, no signal was detected at the IL-8 promoter (FIG. 7H). […]

A further data set relates to phospho JNK1. Nature of the data set: In vitro phosphatase assay on purified phospho JNK1 Histidine. To be noted: 50 nM substrate. The class given is biochemical.
In data set [2] the target is 33P-labeled Erk2 (GST-Erk2 fusion protein phosphorylated in vitro by MEK1) [GST: P08515].
The test system of data set [3] is histone H3 purified from calf thymus. Put plainly: Direct dephosphorylation of histone H3 or H3 tail peptides in vitro. It counts as biochemical. To be noted: 2 hours 30° C., even at 100 fold increased enzyme concentration.
For data set [4], the system named is histone H3 phosphorylation at Ser 10. Put plainly: H3 pS10 induced by okadaic acid in HeLa cells overexpressing OspF (immunofluorescence). The class given is cell-based. To be noted: 200 nM okadaic acid 3 hours. The protocol:
(A) HeLa cells were left untreated (ns) or infected with the WT or the ospF strain at the indicated time. Indirect immunofluorescence detection was performed with anti-phospho-histone H3 S10 polyclonal antibody. (B) HeLa cells were synchronized by a double thymidine block (2 mM thymidine) and left untreated (ns) or infected with the WT or the ospF strain at the indicated time. Immunoblots were probed with anti-H3 phospho S10 (H3 pS10), anti-H3 methyl K9-phospho S10 (H3 metK9-pS10), anti-H3 phospho S10 acetyl-K14 (H3 p-S10/Ac-K14), anti Histone H3 polyclonal anti-pp 38 and pErk antibodies. (C) HeLa cells were transfected with pRK5myc-OspF vector and treated with 200 nM okadaic acid for 3 hours. IF was performed with anti-myc (red) and anti-H3 methyl K9-pS10 (green) antibodies. […] (D) One micogram of calf-thymus histone (Sigma) was incubated with 300 ng of His-OspF or with 120 U of λ phosphatase for 2 hours at 30° C. Western blot was performed with an anti-metK9-pS10 antibody. (E) One micogram of peptide metK9-S10 was spotted onto a nitrocellulose membrane that was incubated with buffers, 5 μg/ml of OspF, or 2000 U/ml of lambda phosphatase for 2 hours at 30° C. Western blot was performed with an anti-metK9-pS10 antibody. (F) HeLa cells were pretreated for 60 min with either the MEK1 inhibitor U0126 (10 μM) or the p38 inhibitor SB203180 (2.5 μM) or both. […]

Another data set concerns phospho p38-GST. Nature of the data set: In vitro phosphatase assay on purified phospho p38-GST. It counts as biochemical. The conditions noted are these: 50 nM substrate.
The subject of data set [5] is histone H3 K14 acetylation. Nature of the data set: Trichostatin-induced hyper acetylation on K14 in HeLa cells overexpressing OspF. The class given is cell-based. The text has this:
A plasmid encoding myc-labelled OspF was used to overexpress OspF in HeLa cells. […] Thus, variations of the levels of phosphoacetylated histone H3 are likely to reflect the sole capacity of OspF to reduce the level of phosphorylation at Ser10.

The subject of a further data set is NF-κB. Put plainly: TNF-α-induced NF-κB reporter construct in Caco 2 cells. It counts as cell-based, human. To be noted: overexpression in Caco 2 cells. From the text:
In addition to the classical MAPK-dependent target genes, OspF also repressed expression of some NF-κB-dependent chemokine genes such as IL-8. The IL-8 promoter contains an NF-κB binding site essential for expression of this gene (Hoffmann et al., 2002). Therefore, the inventors looked whether OspF interferes with the NF-κB signaling pathway.

Data set [6] relates to 33P-labeled Erk2 (GST-Erk2 fusion protein phosphorylated in vitro by MEK1) [GST: P08515]. This is another data set of the same source.

T1 sequence (P28482 whole entry): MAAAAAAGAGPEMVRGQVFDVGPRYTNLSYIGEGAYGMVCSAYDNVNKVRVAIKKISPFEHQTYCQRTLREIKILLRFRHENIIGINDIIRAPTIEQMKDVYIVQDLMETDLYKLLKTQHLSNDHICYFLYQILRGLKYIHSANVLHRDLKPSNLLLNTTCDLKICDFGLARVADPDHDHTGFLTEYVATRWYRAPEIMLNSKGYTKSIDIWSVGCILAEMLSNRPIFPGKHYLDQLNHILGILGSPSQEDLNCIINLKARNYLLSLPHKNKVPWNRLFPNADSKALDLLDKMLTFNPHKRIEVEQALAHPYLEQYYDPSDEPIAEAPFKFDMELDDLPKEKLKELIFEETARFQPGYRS

Turning to `C[S+]([O-])c1ccc(-c2nc(-c3ccc(F)cc3)c(-c3ccncc3)[nH]2)cc1` (centres unmarked) [SB 203180], the “H3 pS10 signal induced by the ospF strain” value in [1] is “fully inhibited”.
Regarding “D219: OspF with aspartate D219 mutated into asparagine”, in the data set with phospho Erk2-GST, the “dephosphorylation of phospho-Erk2 substrate” value was “did not impair phosphatase activity”.
For the molecule “His to Leu mutation at position 172: OspF with His to Leu mutation at position 172”, the “ability to dephosphorylate Erk / prevent Erk phosphorylation in HeLa cells” value with endogenous Erk is “retention of phosphatase activity”.
Take “myc-labelled OspF: myc labelled OspF expressed from plasmid pRK5myc-OspF”: the “prevention of p38 phosphorylation in HeLa cells” value with p38 MAP kinases is given as “prevented phosphorylation”. In addition, the “ability to dephosphorylate Erk / prevent Erk phosphorylation in HeLa cells” value in the data set on endogenous Erk is listed as “prevented phosphorylation”.
For “C1805: OspF with Cys 180 mutated into Ser (printed C1805)”, in the data set with endogenous Erk, the “ability to dephosphorylate Erk / prevent Erk phosphorylation in HeLa cells” value is “None of the mutations”.
With `N#CC(=C(/N)Sc1ccccc1N)/C(C#N)=C(\N)Sc1ccccc1N` [U0126], the “H3 pS10 signal induced by the ospF strain” value in data set [1] is “fully inhibited”.
Regarding `O=C(O)CN(CCN(CC(=O)O)CC(=O)O)CC(=O)O` [EDTA], at OspF, the “OspF activity blocked by EDTA (metal dependence)” value was “not blocked”.

B1: OspF phosphatase (protein)
chain: MPIKKPCLKLNLDSLNVVKSEIPQMLSANERLKNNFNILYNQIRQYPAYYFKVASNVPTYSDICQFFSVMYQGFQIVNHSGDVFIHACRENPQSKGDFVGDKFHISIAREQVPLAFQILSGLLFSEDSPIDKWKITDMNRVSQQSRVGIGAQFTLYVKSDQECSQYSALLLHKIRQFIMCLESNLLRSKIAPGEYPASDVRPEDWKYVSYRNELRSDRDGSERQEQMLREEPFYRLMIE
Turning to B1, the “IL-12 production in vivo” value in the data set with IL-12 is “down regulated”. The “dephosphorylation of pT183 and pY185 residues of Erk” value in the data set with phospho Erk2-GST (500 ng OspF, 50 ng phospho Erk2-GST, 1 hour 30° C.) is “dephosphorylated both Thr and Tyr residues”. The “dephosphorylation of phospho-Erk2 substrate” value with phospho Erk2-GST is given as “directly dephosphorylated”. Further, in the data set with ^33P-labeled Erk2, the “Vmax of Erk2 dephosphorylation” value stood at 9.89 pM/s; the “kcat of Erk2 dephosphorylation” value was determined as 0.0001 s⁻¹; the Km (in general, the substrate concentration at which the rate is half of its maximum) was determined as 0.204 µM. In addition, in the data set on IL-8 promoter (TNF-α stimulation), the “recruitment of OspF at the IL-8 promoter” value is recorded as “transient recruitment”. For the same molecule, the “OspF at the IL-8 promoter” value in the data set with IL-8 promoter (unstimulated cells) is given as “not detectable”. Moreover, the “dephosphorylation of purified phospho JNK1” value in the data set on phospho JNK1 is reported as “failed to dephosphorylate”. In data set [2], the “Km (release of radioactive inorganic phosphate, Michaelis-Menten fit, pH 8, 30° C., 100 nM enzyme)” value worked out at 204 nM; the “Vmax (release of radioactive inorganic phosphate, Michaelis-Menten fit, pH 8, 30° C., 100 nM enzyme)” value was found to be 9.89 pM s^-1; the “kcat (release of radioactive inorganic phosphate, Michaelis-Menten fit, pH 8, 30° C., 100 nM enzyme)” value is reported as 0.0001 s^-1. For the same molecule, in data set [3], the “direct dephosphorylation of histone H3 and metK9-pS10 / pS10 peptides” value is recorded as “did not directly dephosphorylate”. The “induction of H3 pS10 by okadaic acid” value in data set [4] is reported as “efficiently prevented”. The “dephosphorylation of purified phospho p38” value in the data set on phospho p38-GST is reported as “directly dephosphorylated”. Moreover, in data set [5], the “trichostatin-induced hyper acetylation on K14” value was “did not impair”. For the same molecule, the “TNF-α-induced activation of a NF-κB reporter construct” value in the data set with NF-κB is on record as “did not impair”.

B2: MKP1 (enzyme, UniProt P28562 1-367, looked up, species assumed)
Dual specificity protein phosphatase 1: MVMEVGTLDAGGLRALLGERAAQCLLLDCRSFFAFNAGHIAGSVNVRFSTIVRRRAKGAMGLEHIVPNAELRGRLLAGAYHAVVLLDERSAALDGAKRDGTLALAAGALCREARAAQVFFLKGGYEAFSASCPELCSKQSTPMGLSLPLSTSVPDSAESGCSSCSTPLYDQGGPVEILPFLYLGSAYHASRKDMLDALGITALINVSANCPNHFEGHYQYKSIPVEDNHKADISSWFNEAIDFIDSIKNAGGRVFVHCQAGISRSATICLAYLMRTNRVKLDEAFEFVKQRRSIISPNFSFMGQLLQFESQVLAPHCSAEAGSPAMAVLDRGTSTTTVFNFPVSIPVHSTNSALSYLQSPITTSPSC
As for B2, in the data set with ^33P-labeled Erk2, the “Vmax of Erk2 dephosphorylation” value was determined as 6.01 pM/s, the “kcat of Erk2 dephosphorylation” value was determined as 0.0006 s⁻¹ and the Km came to 0.229 µM. In [6], the “Km (release of radioactive inorganic phosphate, Michaelis-Menten fit, 100 nM enzyme)” value stood at 0.229 µM; the “Vmax (release of radioactive inorganic phosphate, Michaelis-Menten fit, 100 nM enzyme)” value amounted to 6.01 pM/s; the “dephosphorylation of 33P-labeled Erk2 (gel mobility in SDS-PAGE/autoradiography, phospho-Erk Western blot)” value is given as “Dephosphorylation of Erk2 by both enzymes was confirmed by the gel-mobility increase of the substrate”; the “kcat (release of radioactive inorganic phosphate, Michaelis-Menten fit, 100 nM enzyme)” value is 0.0006 s⁻¹.
